The target of series [1] is Taq 42 G59W;L245M;L375V;E507K;K508R;E734G;F749I (Thermus aquaticus) (UniProt P19821). Kind of series: EMSA. Particulars: 3' end blocked with dideoxy TMP (3' ddT; unclear whether the printed 3' T is the ddT or it is added); 0.25 nM hairpin, 0.5-1000 nM enzyme, 1x Taq buffer (50 mM KCl for wild type, 95 mM KCl for mutants; full composition and pH not stated for this assay), 37 C …. On the technique in general: Mobility shift assays separate free from complexed probe on a gel.

Series [2] has as its target Taq 1C2 (Thermus aquaticus) (UniProt P19821). Kind of series: EMSA. The note with it: 3' end blocked with dideoxy TMP (3' ddT; unclear whether the printed 3' T is the ddT or it is added); 0.25 nM hairpin, 0.5-1000 nM enzyme, 1x Taq buffer (50 mM KCl for wild type, 95 mM KCl for mutants; full composition and pH not stated for this assay), 37 C ….

What is called Kd is the free concentration of one partner at which half of the binding sites on the other are occupied at equilibrium, for simple one-to-one binding. For “CTCCAGACACGACGCAGTTGCCCGATGGTCGACGTTCGCGAAAGCGAACGTCGACCATCGGGCAACT [hairpin primer-template]”, the results for the Kd in series [1] and in series [2] were 2.75 nM and 1.9 nM, respectively.
